Values joined by “and” are separate entries in the source; they are usually repeats but may differ in a detail not shown here. Equal values may be shown once.
Biological target: GCSC1-GFP fusion protein (UBIpro::GCSC1-GFP) (rice (variety Lemont))
Test: native gel or EMSA

stoichiometry N: 2 and 4
Substance: GCSC1-GFP fusion protein (UBIpro::GCSC1-GFP) (natural protein)

— paper PMC11513116
